Measured values as given in patent US20240270846A1 (published 2024).
Substitutions are numbered along the chain they refer to. One block for each binder: values may come before it.

Assays:
[1] = molecular target: T1, biotin-labeled human CD137 fused to human IgG1 Fc fragment (human, biotin-labeled); test: bead ELISA, IgG on biotin-human CD137-Fc on streptavidin beads, no free CD3e
T1 construct: Immobilised on streptavidin beads through biotin; also called human CD137-Fc; biotin-human CD137-Fc

[2] = molecular target: T1, biotin-labeled human CD137 fused to …; test: competitive bead ELISA, IgG on biotin-human CD137-Fc, competitor free CD3 epsilon peptide 125 pmol/well
[3] = molecular target: T1, biotin-labeled human CD137 fused to …; test: competitive bead ELISA, decrease of signal on biotin-human CD137-Fc with 125 pmol/well free CD3 epsilon peptide against 0
human CD137 = molecular target: T2, human CD137 (human, UniProt Q07011 24-186); test: SPR Biacore T200, IgG captured on protein A, antigen as analyte, 25 C;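 note: antigens flowed over a CM3 chip for 120 s association, KD derived from ka and kd, running buffer (ACES, NaCl, Tween20, pH 7.4) served as blank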
T2 construct: Soluble analyte in the Biacore assay; also called 4-1BB; hCD137

cynomolgus monkey CD137 = molecular target: T3, cynomolgus monkey CD137 (cynomolgus monkey, UniProt Q07011 24-186 (human entry), limits assumed); test: as above
T3 construct: Soluble analyte in the Biacore assay; also called cyno CD137
T3 chain: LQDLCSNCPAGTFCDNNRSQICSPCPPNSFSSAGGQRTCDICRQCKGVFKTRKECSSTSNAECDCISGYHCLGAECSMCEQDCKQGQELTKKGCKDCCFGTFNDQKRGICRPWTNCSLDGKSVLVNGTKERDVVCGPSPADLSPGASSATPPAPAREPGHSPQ

human CD3ed = molecular target: T4, human CD3ed (human, UniProt P07766 23-126; P04234 22-105, limits assumed); test: as above
T4 construct: The construct injected as 'human CD3ed' in the Biacore assay is not defined; also called human CD3 epsilon/delta heterodimer
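Throughout, for ELISA signal, free CD3e 125 pmol/well: bead ELISA on streptavidin-coated magnetic beads, with the signal read as well fluorescence 2 min after APS-5 addition.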

B3: dBBDu197 (antibody, human IgG1, V domains shown)
VH: QVQLVESGGGLVQPGRSLRLSCAASGFTFSNAWMHWVRQAPGKGLEWVAQIKDRSNAYAAYYAPSVKGRFTISRDDSKNSIYLQMNSLKTEDTAVYYCHYVHYASASTVLPAFGVDAWGQGTTVTVSS
VL: DIVMTQSPLSLPVTPGEPASISCRSSQSLVHSNRNTYLHWYQQKPGQAPRLLIYKVSNRFSGVPDRFSGSGSGTDFTLKISRVEAEDVGVYYCGQGTQVPYTFGQGTKLEIK
notes: IgG: VH joined to human IgG1 CH1-Fc, GLS3000 as light chain
ELISA signal, free CD3e 0 pmol/well [1]: 54400
ELISA signal, free CD3e 125 pmol/well [2]: 2110
Signal decrease [3]: 96.1%

B4: dBBDu124 (antibody, human IgG1, V domains shown)
VH: B3 VH with R54K, S55Q, A57L, A59N, P64E
VL: B3 VL
notes: IgG: VH joined to human IgG1 CH1-Fc, GLS3000 as light chain; also called DADU01_3_#002; DADU01_3 #002
ELISA signal, free CD3e 0 pmol/well [1]: 6620
ELISA signal, free CD3e 125 pmol/well [2]: 2120
Signal decrease [3]: 68%

B8: dBBDu173 (antibody, human IgG1, V domains shown)
VH: B3 VH with R54K, S55G, A57L, S107G, T108G, V109G, P111S, F113Y
VL: B3 VL
notes: as for B3
ELISA signal, free CD3e 0 pmol/well [1]: 6540
ELISA signal, free CD3e 125 pmol/well [2]: 2040
Signal decrease [3]: 68.8%

B10: dBBDu222 (antibody, human IgG1, V domains shown)
VH: QVQLVESGGGLVQPGRSLRLSCAASGFTISSAWMHWVRQAPGKGLEWVAQIKDRANGYAAYYAPSVKGRFTISRDDSKNSIYLQMNSLKTEDTAVYYCRYVHYATAYDGFYGFGVDAWGQGTTVTVSS
VL: B3 VL
notes: as for B3
ELISA signal, free CD3e 0 pmol/well [1]: 7190
ELISA signal, free CD3e 125 pmol/well [2]: 3240
Signal decrease [3]: 55%

B11: dBBDu186 (antibody, human IgG1, V domains shown)
VH: B3 VH with A57Q, A60T, S105Q
VL: B3 VL
notes: as for B3
ELISA signal, free CD3e 0 pmol/well [1]: 34800
ELISA signal, free CD3e 125 pmol/well [2]: 2500
Signal decrease [3]: 92.8%

B13: dBBDu205 (antibody, human IgG1, V domains shown)
VH: B3 VH with N56Q, A57L
VL: B3 VL
notes: as for B3
ELISA signal, free CD3e 0 pmol/well [1]: 45200
ELISA signal, free CD3e 125 pmol/well [2]: 2190
Signal decrease [3]: 95.2%

B14: dBBDu126 (antibody, human IgG1, V domains shown)
VH: QVQLVESGGGLVQPGRSLRLSCAASGFTFSIAWMHWVRQAPGKGLEWVAQIKDRVNAYEAYYAPSVKGRFTISRDDSKNSIYLQMNSLKTEDTAVYYCRYVHYASYYDLLGYGGVDAWGQGTTVTVSS
VL: B3 VL
notes: IgG: VH joined to human IgG1 CH1-Fc, GLS3000 as light chain; also called DADU01_3_#001; DADU01_3 #001
ELISA signal, free CD3e 0 pmol/well [1]: 116000
ELISA signal, free CD3e 125 pmol/well [2]: 2610
Signal decrease [3]: 97.8%

B16: dBBDu122 (antibody, human IgG1, V domains shown)
VH: B3 VH with N56Q, A57L, P111G, F113Y
VL: B3 VL
notes: IgG: VH joined to human IgG1 CH1-Fc, GLS3000 as light chain; also called DXDU01_3_#072; DXDU01_3 #072
ELISA signal, free CD3e 0 pmol/well [1]: 2700
ELISA signal, free CD3e 125 pmol/well [2]: 1880
Signal decrease [3]: 30.2%

B18: dBBDu202 (antibody, human IgG1, V domains shown)
VH: B3 VH with R54K, S55G, A104S, S105A
VL: B3 VL
notes: as for B3
ELISA signal, free CD3e 0 pmol/well [1]: 12100
ELISA signal, free CD3e 125 pmol/well [2]: 1930
Signal decrease [3]: 84%

B20: dBBDu199 (antibody, human IgG1, V domains shown)
VH: B3 VH with R54K, S55Q, N56S, A57G, A59N, A60T
VL: B3 VL
notes: as for B3
ELISA signal, free CD3e 0 pmol/well [1]: 40900
ELISA signal, free CD3e 125 pmol/well [2]: 2370
Signal decrease [3]: 94.2%

B21: dBBDu121 (antibody, human IgG1, V domains shown)
VH: B3 VH with R54K, S55G, S107A, T108G, V109G, A112G
VL: B3 VL
notes: IgG: VH joined to human IgG1 CH1-Fc, GLS3000 as light chain; also called DXDU01_3_#094; DXDU01_3 #094
ELISA signal, free CD3e 0 pmol/well [1]: 3610
ELISA signal, free CD3e 125 pmol/well [2]: 1830
Signal decrease [3]: 49.4%

B22: dBBDu196 (antibody, human IgG1, V domains shown)
VH: B3 VH with S55G, A59N, P64E
VL: B3 VL
notes: as for B3
ELISA signal, free CD3e 0 pmol/well [1]: 33100
ELISA signal, free CD3e 125 pmol/well [2]: 2220
Signal decrease [3]: 93.3%

B24: dBBDu_193 / dBBDu.L132 (antibody, human IgG1, V domains shown)
VH: B3 VH with A57Q, A60T, A104S, S105A, V109L, A112S
VL: DIVMTQSPLSLPVTPGEPASISCQTSEELVHINRFIFLHWYQQKPGQAPRLLIYKVSNRFSGVPDRFSGSGSGTDFTLKISRVEAEDVGVYYCAQGTSVPFTFGQGTKLEIK
notes: Tested as IgG (human IgG1 constant region, kappa light chain); also called dBBDu193/L132; dBBDu_193/L132
Kd (human CD137): 4.48 µM
koff (human CD137): 0.00211 s⁻¹
kon (human CD137): 471 M⁻¹ s⁻¹
Kd (cynomolgus monkey CD137): 757 µM
koff (cynomolgus monkey CD137): 0.0061 s⁻¹
Kd (human CD3ed): 2.03 µM
koff (human CD3ed): 0.0201 s⁻¹
kon (human CD3ed): 9890 M⁻¹ s⁻¹

Other lines, results leading:

ELISA signal, free CD3e 0 pmol/well [1]: 9440
ELISA signal, free CD3e 125 pmol/well [2]: 1920
Signal decrease [3]: 79.6%
B1: dBBDu139 (antibody, human IgG1, V domains shown)
VH: QVQLVESGGGLVQPGRSLRLSCAASGFTFSNAWMHWVRQAPGKGLEWVAQIKDRGNAYNAYYAESVKGRFTISRDDSKNSIYLQMNSLKTEDTAVYYCRFVHYRHPLLHIQYGVDAWGQGTTVTVSS
VL: B3 VL
notes: as for B3

ELISA signal, free CD3e 0 pmol/well [1]: 19100
ELISA signal, free CD3e 125 pmol/well [2]: 2420
Signal decrease [3]: 87.3%
B2: dBBDu217 (antibody, human IgG1, V domains shown)
VH: QVQLVESGGGLVQPGRSLRLSCAASGFTFSNAWMHWVRQAPGKGLEWVAQIKDRQQGYATYYAPSVKGRFTISRDDSKNSIYLQMNSLKTEDTAVYYCRFVHYHLAGYGYYGVDAWGQGTTVTVSS
VL: B3 VL
notes: as for B3

ELISA signal, free CD3e 0 pmol/well [1]: 43700
ELISA signal, free CD3e 125 pmol/well [2]: 1880
Signal decrease [3]: 95.7%
B5: dBBDu204 (antibody, human IgG1, V domains shown)
VH: B3 VH with A57N, A60T, P64E
VL: B3 VL
notes: as for B3

ELISA signal, free CD3e 0 pmol/well [1]: 34000
ELISA signal, free CD3e 125 pmol/well [2]: 2370
Signal decrease [3]: 93%
B6: dBBDu183 (antibody, human IgG1, V domains shown)
VH: B3 VH with R54K, S55G
VL: B3 VL
notes: as for B3

ELISA signal, free CD3e 0 pmol/well [1]: 2750
ELISA signal, free CD3e 125 pmol/well [2]: 1840
Signal decrease [3]: 33%
B7: dBBDu123 (antibody, human IgG1, V domains shown)
VH: B3 VH with S55A, A57S, A59N, A104S, S105A, V109L, A112S
VL: B3 VL
notes: IgG: VH joined to human IgG1 CH1-Fc, GLS3000 as light chain; also called DADU01_3_#018; DADU01_3 #018

ELISA signal, free CD3e 0 pmol/well [1]: 25700
ELISA signal, free CD3e 125 pmol/well [2]: 1940
Signal decrease [3]: 92.5%
B9: dBBDu167 (antibody, human IgG1, V domains shown)
VH: B3 VH with R54K, S55G, A57L, S107G, T108G, V109G, A112G
VL: B3 VL
notes: as for B3

ELISA signal, free CD3e 0 pmol/well [1]: 27400
ELISA signal, free CD3e 125 pmol/well [2]: 2190
Signal decrease [3]: 92%
B12: dBBDu189 (antibody, human IgG1, V domains shown)
VH: B3 VH with V48I, A57Q, A60T, S105Q, T108S, V109L, A112S
VL: B3 VL
notes: as for B3

ELISA signal, free CD3e 0 pmol/well [1]: 61000
ELISA signal, free CD3e 125 pmol/well [2]: 2620
Signal decrease [3]: 95.7%
B15: dBBDu179 (antibody, human IgG1, V domains shown)
VH: B3 VH with A57Q, A60T
VL: B3 VL
notes: as for B3

ELISA signal, free CD3e 0 pmol/well [1]: 18200
ELISA signal, free CD3e 125 pmol/well [2]: 2280
Signal decrease [3]: 87.5%
B17: dBBDu193 (antibody, human IgG1, V domains shown)
VH: B3 VH with A57Q, A60T, A104S, S105A, V109L, A112S
VL: B3 VL
notes: as for B3

ELISA signal, free CD3e 0 pmol/well [1]: 3230
ELISA signal, free CD3e 125 pmol/well [2]: 2200
Signal decrease [3]: 32%
B19: dBBDu127 (antibody, human IgG1, V domains shown)
VH: B3 VH with S55G, N56Q, A57Q, A59N, T108S, A112G, F113Y
VL: B3 VL
notes: IgG: VH joined to human IgG1 CH1-Fc, GLS3000 as light chain; also called DXDU01_3_#051; DXDU01_3 #051

Kd (human CD137): 3.3 µM
koff (human CD137): 0.00145 s⁻¹
kon (human CD137): 440 M⁻¹ s⁻¹
Kd (cynomolgus monkey CD137): 28.1 µM
koff (cynomolgus monkey CD137): 0.00316 s⁻¹
kon (cynomolgus monkey CD137): 112 M⁻¹ s⁻¹
Kd (human CD3ed): 1.51 µM
koff (human CD3ed): 0.0191 s⁻¹
kon (human CD3ed): 12600 M⁻¹ s⁻¹
B23: dBBDu_193 / dBBDu.L127 (antibody, human IgG1, V domains shown)
VH: B3 VH with A57Q, A60T, A104S, S105A, V109L, A112S
VL: B24 VL with Q24R, T25A, V30L, F35H, S57Y, S61T
notes: Tested as IgG (human IgG1 constant region, kappa light chain); also called dBBDu193/L127; dBBDu_193/L127

Kd (human CD137): 8.43 µM
koff (human CD137): 0.0102 s⁻¹
kon (human CD137): 1210 M⁻¹ s⁻¹
Kd (cynomolgus monkey CD137): 6.92 µM
koff (cynomolgus monkey CD137): 0.0748 s⁻¹
kon (cynomolgus monkey CD137): 10800 M⁻¹ s⁻¹
Kd (human CD3ed): 0.349 µM
koff (human CD3ed): 0.021 s⁻¹
kon (human CD3ed): 60200 M⁻¹ s⁻¹
B25: dBBDu_167 / dBBDu.L094 (antibody, human IgG1, V domains shown)
VH: B3 VH with R54K, S55G, A57L, S107G, T108G, V109G, A112G
VL: B24 VL with Q24Y, T25A, V30L, F35H, F37Y, S57Y, S61N, T97S
notes: Tested as IgG (human IgG1 constant region, kappa light chain); also called dBBDu167/L094; dBBDu_167/L094
